The labels stand for the following.
B1: AX211 IgG2 (antibody, V domains shown)
VH: QVQLLESGGGLVQPGGSLRLSCKASGYTFSRQGFTWVRQAPGKGLEWIGWIDPGNGGTRYNEKFKGKATISRDNSKNTLYLQMNSLRAEDTAVYYCARYRVGYSLDYWGQGTLVTVSS
VL: EIVLTQSPATLSLSPGERATITCRASQYVGSYLNWYQQKPGQAPRLLIYDASNRATGIPARFSGSGSGTDFTLTISSLEPEDFAVYYCQVWDSSPPVVFGGGTKVEIK
B2: AX137 IgG2 (antibody, V domains shown)
VH: EVQLLESGGGLVQPGGSLRLSCKASGYTFSSYGMYWVRQAPGKGLEWIGWIDPGSGGTKYNEKFKGKATISRDNSKNTLYLQMNSLRAEDTAVYYCARERYGYYFDYWGQGTLVTVSS
VL: B1 VL with V29I, V90A
B3: AX210 IgG2 (antibody, V domains shown)
VH: B1 VH with R31S, Q32Y, G33S, F34I, T35Y, E62Q, K65Q, G66S, Y99A
VL: B1 VL
B4: AX132 IgG2 (antibody)
heavy: EVQLLESGGGLVQPGGSLRLSCKASGYTFSSYGMYWVRQAPGKGLEWIGWIDPGSGGTKYNEKFKGKATISRDNSKNTLYLQMNSLRAEDTAVYYCARERYGYYFDYWGQGTLVTVSSASTKGPSVFPLAPCSRSTSESTAALGCLVKDYFPEPVTVSWNSGALTSGVHTFPAVLQSSGLYSLSSVVTVPSSNFGTQTYTCNVDHKPSNTKVDKTVERKCCVECPPCPAPPVAGPSVFLFPPKPKDTLMISRTPEVTCVVVDVSHEDPEVQFNWYVDGVEVHNAKTKPREEQFNSTFRVVSVLTVVHQDWLNGKEYKCKVSNKGLPAPIEKTISKTKGQPREPQVYTLPPSREEMTKNQVSLTCLVKGFYPSDIAVEWESNGQPENNYKTTPPMLDSDGSFFLYSKLTVDKSRWQQGNVFSCSVMHEALHNHYTQKSLSLSPGK
VL: B1 VL
B5: AX210 IgG2 (antibody, V domains shown)
VH: B1 VH with R31S, Q32Y, G33S, F34I, T35Y, E62Q, K65Q, G66S, Y99A
VL: B1 VL
B6: AX114 IgG2 (antibody, V domains shown)
VH: B2 VH
VL: B1 VL with S31T, V98A
B7: AX211 IgG2 (antibody, V domains shown)
VH: B1 VH
VL: B1 VL
B8: AX137 IgG2 (antibody, V domains shown)
VH: B2 VH
VL: B1 VL with V29I, V90A
B9: AX212 IgG2 (antibody, V domains shown)
VH: B1 VH with R31S, Q32Y, G33S, T35S, W50Y, N55S, R59K, E62Q, K65Q, Y99Q
VL: B1 VL
B10: AX213 IgG2 (antibody, V domains shown)
VH: B1 VH with Q1E, Q32Y, F34I, T35N, W50R, Y99A, R100N, V101D, L105F
VL: EIVLTQSPATLSLSPGERATITCRASQYVGSYLNWYQQKPGQAPRLLIYDASNRATGIPARFSGSGSGTDFTLTISSLEPEDFAVYYCQVWDSSPPVVFGGGTKVEIKR
B11: AX132 IgG2 (antibody)
heavy: B4 heavy
light: EIVLTQSPATLSLSPGERATITCRASQYVGSYLNWYQQKPGQAPRLLIYDASNRATGIPARFSGSGSGTDFTLTISSLEPEDFAVYYCQVWDSSPPVVFGGGTKVEIKRTVAAPSVFIFPPSDEQLKSGTASVVCLLNNFYPREAKVQWKVDNALQSGNSQESVTEQDSKDSTYSLSSTLTLSKADYEKHKVYACEVTHQGLSSPVTKSFNRGEC
B12: AX114 Fab (Fab, V domains shown)
VH: B2 VH
VL: B1 VL with S31T, V98A
B13: AX139 Fab (Fab, V domains shown)
VH: B2 VH
VL: B1 VL with S52A
B14: AX132 Fab (Fab, V domains shown)
VH: B2 VH
VL: B10 VL
B15: AX137 Fab (Fab, V domains shown)
VH: B2 VH
VL: B1 VL with V29I, V90A

The record followed here is patent US20120213794A1 (published 2012).

Positions count from the first letter of the chain named.

Broadly, the Kd is the concentration at which binding is half-saturated. Lower therefore signals tighter binding.

rat PCSK9, sequence (P59996 31-691 limits assumed): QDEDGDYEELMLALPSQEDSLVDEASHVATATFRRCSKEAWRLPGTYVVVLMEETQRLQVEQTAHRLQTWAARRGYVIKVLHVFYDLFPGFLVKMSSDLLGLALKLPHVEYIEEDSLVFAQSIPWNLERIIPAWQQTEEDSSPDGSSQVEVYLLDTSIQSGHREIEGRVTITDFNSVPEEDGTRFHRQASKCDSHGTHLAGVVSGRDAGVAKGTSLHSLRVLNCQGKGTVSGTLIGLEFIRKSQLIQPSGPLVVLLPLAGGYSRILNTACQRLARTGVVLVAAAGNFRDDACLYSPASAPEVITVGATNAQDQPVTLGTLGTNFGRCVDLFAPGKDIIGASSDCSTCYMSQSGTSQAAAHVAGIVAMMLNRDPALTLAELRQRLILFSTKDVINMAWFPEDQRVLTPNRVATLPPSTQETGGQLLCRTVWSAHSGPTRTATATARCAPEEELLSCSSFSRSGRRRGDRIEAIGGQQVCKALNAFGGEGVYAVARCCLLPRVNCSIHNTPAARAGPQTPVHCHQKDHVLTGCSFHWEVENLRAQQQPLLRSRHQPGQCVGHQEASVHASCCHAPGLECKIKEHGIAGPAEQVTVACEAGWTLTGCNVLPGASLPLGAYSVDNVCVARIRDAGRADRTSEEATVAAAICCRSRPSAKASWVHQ

The target of one test is T1, human PCSK9 (human, UniProt Q8NBP7 31-692). In words: cell-based or functional assay.
T1 sequence (Q8NBP7 31-692 limits assumed): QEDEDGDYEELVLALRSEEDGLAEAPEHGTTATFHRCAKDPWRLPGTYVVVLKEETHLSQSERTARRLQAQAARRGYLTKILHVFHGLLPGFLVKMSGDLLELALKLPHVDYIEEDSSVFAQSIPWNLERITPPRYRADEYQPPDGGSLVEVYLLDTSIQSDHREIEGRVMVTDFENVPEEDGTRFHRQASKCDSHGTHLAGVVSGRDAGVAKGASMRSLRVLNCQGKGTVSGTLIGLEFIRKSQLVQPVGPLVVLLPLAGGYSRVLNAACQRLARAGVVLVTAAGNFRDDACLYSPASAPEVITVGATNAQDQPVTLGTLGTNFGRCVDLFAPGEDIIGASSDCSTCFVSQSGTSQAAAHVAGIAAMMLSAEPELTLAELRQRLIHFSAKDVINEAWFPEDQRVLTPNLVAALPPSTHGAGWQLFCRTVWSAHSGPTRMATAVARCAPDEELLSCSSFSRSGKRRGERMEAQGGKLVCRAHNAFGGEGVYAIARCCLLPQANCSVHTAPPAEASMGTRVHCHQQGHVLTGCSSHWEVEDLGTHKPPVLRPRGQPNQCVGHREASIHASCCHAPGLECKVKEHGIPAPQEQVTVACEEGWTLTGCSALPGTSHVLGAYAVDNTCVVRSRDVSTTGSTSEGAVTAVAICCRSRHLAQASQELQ
In the case of B1, the “IgG2 IC50 (nM), inhibition of PCSK9 (LDL uptake assay)” value (“IgG2 IC50 (nM), inhibition of PCSK9” below) amounted to 7.5 nM.

As for B2, the “IgG2 IC50 (nM), inhibition of PCSK9” value stood at 9.8 nM.

On to B3, for which the “IgG2 IC50 (nM), inhibition of PCSK9” value was determined as 6.5 nM.

In the case of B4, the “IgG2 IC50 (nM), inhibition of PCSK9” value was found to be 8.9 nM.

The target in the next test is T2, murine PCSK9 (mouse, UniProt Q80W65 35-694, limits assumed). In words: cell-based or functional assay.
T2 sequence (Q80W65 35-694 limits assumed): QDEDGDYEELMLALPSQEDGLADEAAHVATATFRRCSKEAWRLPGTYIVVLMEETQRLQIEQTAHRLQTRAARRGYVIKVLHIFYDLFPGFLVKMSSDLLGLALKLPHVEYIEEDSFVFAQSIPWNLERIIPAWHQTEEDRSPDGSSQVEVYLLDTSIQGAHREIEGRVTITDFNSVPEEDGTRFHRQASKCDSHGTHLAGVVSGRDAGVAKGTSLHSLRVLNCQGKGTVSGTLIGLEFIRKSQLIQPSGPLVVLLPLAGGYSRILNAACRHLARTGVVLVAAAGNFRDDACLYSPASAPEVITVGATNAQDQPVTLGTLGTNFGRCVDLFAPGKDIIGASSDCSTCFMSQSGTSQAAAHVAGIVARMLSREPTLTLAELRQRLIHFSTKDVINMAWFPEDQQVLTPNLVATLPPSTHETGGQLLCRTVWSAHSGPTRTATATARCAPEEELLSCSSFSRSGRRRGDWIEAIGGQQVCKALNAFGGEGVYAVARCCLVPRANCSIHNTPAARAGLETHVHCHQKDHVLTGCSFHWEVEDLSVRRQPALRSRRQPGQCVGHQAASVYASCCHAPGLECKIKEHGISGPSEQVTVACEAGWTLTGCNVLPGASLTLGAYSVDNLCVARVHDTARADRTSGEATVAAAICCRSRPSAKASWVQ
As for B1, the “IgG2 IC50 (nM), inhibition of PCSK9” value stood at 11.1 nM.

Take B2: the “IgG2 IC50 (nM), inhibition of PCSK9” value was determined as 5.3 nM.

Consider B3, for which the “IgG2 IC50 (nM), inhibition of PCSK9” value amounted to 15.9 nM.

As for B4, the “IgG2 IC50 (nM), inhibition of PCSK9” value was 9.4 nM.

A further test deals with T3, rhesus PCSK9 (rhesus, UniProt A8T666 31-692, limits assumed). In words: cell-based or functional assay.
T3 sequence (A8T666 31-692 limits assumed): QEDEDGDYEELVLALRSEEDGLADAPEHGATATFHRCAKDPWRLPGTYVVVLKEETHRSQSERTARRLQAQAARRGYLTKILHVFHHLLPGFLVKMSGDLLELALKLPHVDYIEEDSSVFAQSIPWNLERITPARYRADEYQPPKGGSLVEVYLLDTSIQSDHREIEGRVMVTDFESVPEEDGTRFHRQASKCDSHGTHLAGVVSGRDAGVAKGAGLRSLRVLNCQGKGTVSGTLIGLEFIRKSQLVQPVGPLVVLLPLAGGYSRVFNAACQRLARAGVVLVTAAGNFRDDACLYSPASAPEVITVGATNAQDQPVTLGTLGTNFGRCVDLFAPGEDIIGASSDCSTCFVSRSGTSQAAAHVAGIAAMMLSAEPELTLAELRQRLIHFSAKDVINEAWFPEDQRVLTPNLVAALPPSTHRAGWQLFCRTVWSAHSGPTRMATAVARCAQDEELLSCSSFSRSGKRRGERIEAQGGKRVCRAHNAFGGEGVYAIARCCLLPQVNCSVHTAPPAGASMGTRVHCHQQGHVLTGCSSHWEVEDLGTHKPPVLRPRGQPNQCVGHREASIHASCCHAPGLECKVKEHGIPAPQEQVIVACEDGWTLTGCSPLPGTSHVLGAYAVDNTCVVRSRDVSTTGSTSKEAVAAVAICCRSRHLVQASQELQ
As for B1, the “IgG2 IC50 (nM), inhibition of PCSK9” value stood at 4.4 nM.

On to B2, for which the “IgG2 IC50 (nM), inhibition of PCSK9” value was 10 nM.

For B3, the “IgG2 IC50 (nM), inhibition of PCSK9” value amounted to 9.7 nM.

B4: the “IgG2 IC50 (nM), inhibition of PCSK9” value is 11.5 nM.

For another test, the target named is T4, Rhesus PCSK9 (rhesus, UniProt A8T666 31-692, limits assumed).
T4 construct: also called rhPCSK9
T4 sequence (A8T666 31-692 limits assumed): as above
In words: Biacore (SPR), IgG2 captured, PCSK9 as analyte. In general terms: In SPR one partner is held on a chip, and binding of the other changes the refractive index at the surface.
In the case of B5, the dissociation constant (Kd) stood at 0.944 nM.

B6 had a Kd of 11.6 nM. This Kd is about 12-fold higher than that of the molecule before.

B7 gave a Kd of 0.493 nM. This Kd is about 24-fold lower than that of the molecule before.

In turn, B8 had a Kd of 10 nM.

Regarding B9, the affinity, expressed as Kd, was 0.774 nM.

The molecule B10 registered a dissociation constant Kd of 1.89 nM.

A further test concerns the target rat PCSK9 (rat, UniProt P59996 31-691, limits assumed). In words: Biacore (SPR), IgG2 captured, PCSK9 as analyte.
On to B11, for which the Kd was approximately 100 nM.

The next test deals with T5, Mouse PCSK9 (mouse, UniProt Q80W65 35-694, limits assumed).
T5 construct: Column head prints 'Mouse 9'; also called Mouse 9; mPCSK9
T5 sequence (Q80W65 35-694 limits assumed): as the sequence (Q80W65 35-694 limits assumed) above
In words: Biacore (SPR), IgG2 captured, PCSK9 as analyte.
B5 showed a Kd of 3.6 nM.

Regarding B6, the equilibrium dissociation constant (Kd) was found to be 11.2 nM.

B7 had a dissociation constant Kd of 1.66 nM.

B9 registered a Kd of 2.74 nM.

As for B11, the dissociation constant Kd was determined as 2.76 nM.

B10 had a Kd of 3.25 nM. The Kd values of the last two molecules are within 1.5-fold of each other.

The next test addresses T6, human PCSK9 (human, UniProt Q8NBP7 31-692).
T6 construct: also called hPCSK9
In words: Biacore (SPR), IgG2 captured, PCSK9 as analyte.
T6 sequence (Q8NBP7 31-692 limits assumed): as the sequence (Q8NBP7 31-692 limits assumed) above
B5 had a Kd of 2.64 nM.

In the case of B6, the Kd came to 24 nM.

For the molecule B7, the Kd was 1.63 nM. This Kd is about 15-fold lower than that of the molecule before.

The molecule B8 displayed a Kd of 9.98 nM.

In turn, B9 displayed a dissociation constant Kd of 2.12 nM.

B10 gave a dissociation constant (Kd) of 2.07 nM.

The next test concerns the target T1, human PCSK9. In words: cell-based or functional assay. The source holds these as a separate data set.
As to B12, the “Fab IC50 (nM), inhibition of PCSK9 on LDL uptake” value (“Fab IC50 (nM), inhibition” for short) was 179 nM.

On to B13, for which the “Fab IC50 (nM), inhibition” value is 37.7 nM.

For B14, the “Fab IC50 (nM), inhibition” value amounted to 62.2 nM.

Turning to B15, the “Fab IC50 (nM), inhibition” value came to 74.4 nM.

Another test addresses T2, murine PCSK9. In words: cell-based or functional assay. This is another data set of the same source.
For the molecule B12, the “Fab IC50 (nM), inhibition” value amounted to 326 nM.

For B13, the “Fab IC50 (nM), inhibition” value is 22.9 nM.

With B14, the “Fab IC50 (nM), inhibition” value came to 26.9 nM.

Take B15: the “Fab IC50 (nM), inhibition” value turned out to be 27.4 nM.

A further test deals with T3, rhesus PCSK9. In words: cell-based or functional assay. This is another data set of the same source.
Consider B12, for which the “Fab IC50 (nM), inhibition” value was 194 nM.

Another test addresses T5, Mouse PCSK9. In words: Biacore (SPR), IgG2 format.
For B8, the binding result was “no binding”.
